Assay results: patent US20260001928A1 (CORTERIA PHARMACEUTICALS, priority 2022, published 2026)
*1 amine or outer side, *2 acyl side, *3 side chain or, on linkers, in order; H or OH if unused. Where no end group is shown, it is not given here. Side-chain parts run from the residue outwards. [ ]: non-standard residue; d: D form. The star is where a group is joined. C18 diacid = O=C(O)CCCCCCCCCCCCCCCCC(=O)*; C16 diacid = O=C(O)CCCCCCCCCCCCCCC(=O)*; γGlu = O=C(O)[C@H](CCC(=O)[*:2])N[*:1]; NMeI = CC[C@H](C)[C@H](NC)C(=O)O; αMeL = CC(C)C[C@](C)(N)C(=O)O; AEEA = NCCOCCOCC(=O)O; Aib = CC(C)(N)C(=O)O

T1: CRF1R receptor (UniProt P34998 24-415, limits assumed)
T1 sequence (looked up): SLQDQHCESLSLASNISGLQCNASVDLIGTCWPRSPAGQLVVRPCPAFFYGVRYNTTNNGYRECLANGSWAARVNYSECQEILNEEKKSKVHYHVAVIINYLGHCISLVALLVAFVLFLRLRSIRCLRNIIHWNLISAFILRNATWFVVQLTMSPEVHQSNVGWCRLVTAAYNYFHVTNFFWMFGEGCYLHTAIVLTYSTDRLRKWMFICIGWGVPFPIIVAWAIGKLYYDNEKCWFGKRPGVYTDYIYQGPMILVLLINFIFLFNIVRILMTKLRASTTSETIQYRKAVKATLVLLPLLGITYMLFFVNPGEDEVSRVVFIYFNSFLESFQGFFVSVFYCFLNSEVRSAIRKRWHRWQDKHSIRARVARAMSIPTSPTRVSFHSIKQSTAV

B1: SEQ ID NO 118 (peptide)
peptide: [NMeI]VLSLD[dV]PIKLK([AEEA-AEEA-γGlu-C18 diacid])KILLEQEKQKKQREQAETN[Aib]QILAQV-NH2
modifications: N-terminus assumed
SMILES: CC[C@H](C)[C@H](NC)C(=O)N[C@H](C(=O)N[C@@H](CC(C)C)C(=O)N[C@@H](CO)C(=O)N[C@@H](CC(C)C)C(=O)N[C@@H](CC(=O)O)C(=O)N[C@@H](C(=O)N1CCC[C@H]1C(=O)N[C@H](C(=O)N[C@@H](CCCCN)C(=O)N[C@@H](CC(C)C)C(=O)N[C@@H](CCCCNC(=O)COCCOCCNC(=O)COCCOCCNC(=O)CC[C@H](NC(=O)CCCCCCCCCCCCCCCCC(=O)O)C(=O)O)C(=O)N[C@@H](CCCCN)C(=O)N[C@H](C(=O)N[C@@H](CC(C)C)C(=O)N[C@@H](CC(C)C)C(=O)N[C@@H](CCC(=O)O)C(=O)N[C@@H](CCC(N)=O)C(=O)N[C@@H](CCC(=O)O)C(=O)N[C@@H](CCCCN)C(=O)N[C@@H](CCC(N)=O)C(=O)N[C@@H](CCCCN)C(=O)N[C@@H](CCCCN)C(=O)N[C@@H](CCC(N)=O)C(=O)N[C@@H](CCCNC(=N)N)C(=O)N[C@@H](CCC(=O)O)C(=O)N[C@@H](CCC(N)=O)C(=O)N[C@@H](C)C(=O)N[C@@H](CCC(=O)O)C(=O)N[C@H](C(=O)N[C@@H](CC(N)=O)C(=O)NC(C)(C)C(=O)N[C@@H](CCC(N)=O)C(=O)N[C@H](C(=O)N[C@@H](CC(C)C)C(=O)N[C@@H](C)C(=O)N[C@@H](CCC(N)=O)C(=O)N[C@H](C(N)=O)C(C)C)[C@@H](C)CC)[C@@H](C)O)[C@@H](C)CC)[C@@H](C)CC)C(C)C)C(C)C
B2: SEQ ID NO 146 (peptide)
peptide: IVLSLD[dV]PIKLK([AEEA-AEEA-γGlu-γGlu-C16 diacid])QILLKQERQKKQREQAEKNKQILEQV-NH2
B3: SEQ ID NO 102 (peptide)
peptide: Ac-IVLSLDVPIKLK([AEEA-AEEA-γGlu-C18 diacid])KILLEQEKQKKQREQAETNVQILAQV-NH2
SMILES: CC[C@H](C)[C@H](NC(C)=O)C(=O)N[C@H](C(=O)N[C@@H](CC(C)C)C(=O)N[C@@H](CO)C(=O)N[C@@H](CC(C)C)C(=O)N[C@@H](CC(=O)O)C(=O)N[C@H](C(=O)N1CCC[C@H]1C(=O)N[C@H](C(=O)N[C@@H](CCCCN)C(=O)N[C@@H](CC(C)C)C(=O)N[C@@H](CCCCNC(=O)COCCOCCNC(=O)COCCOCCNC(=O)CC[C@H](NC(=O)CCCCCCCCCCCCCCCCC(=O)O)C(=O)O)C(=O)N[C@@H](CCCCN)C(=O)N[C@H](C(=O)N[C@@H](CC(C)C)C(=O)N[C@@H](CC(C)C)C(=O)N[C@@H](CCC(=O)O)C(=O)N[C@@H](CCC(N)=O)C(=O)N[C@@H](CCC(=O)O)C(=O)N[C@@H](CCCCN)C(=O)N[C@@H](CCC(N)=O)C(=O)N[C@@H](CCCCN)C(=O)N[C@@H](CCCCN)C(=O)N[C@@H](CCC(N)=O)C(=O)N[C@@H](CCCNC(=N)N)C(=O)N[C@@H](CCC(=O)O)C(=O)N[C@@H](CCC(N)=O)C(=O)N[C@@H](C)C(=O)N[C@@H](CCC(=O)O)C(=O)N[C@H](C(=O)N[C@@H](CC(N)=O)C(=O)N[C@H](C(=O)N[C@@H](CCC(N)=O)C(=O)N[C@H](C(=O)N[C@@H](CC(C)C)C(=O)N[C@@H](C)C(=O)N[C@@H](CCC(N)=O)C(=O)N[C@H](C(N)=O)C(C)C)[C@@H](C)CC)C(C)C)[C@@H](C)O)[C@@H](C)CC)[C@@H](C)CC)C(C)C)C(C)C
B4: SEQ ID NO 64 (peptide)
peptide: [NMeI]VLSLD[dV]PIKLK([γGlu-C16 diacid])KILLEQEKQKKQREQAETN[Aib]QILAQV-NH2
modifications: N-terminus assumed
SMILES: CC[C@H](C)[C@H](NC)C(=O)N[C@H](C(=O)N[C@@H](CC(C)C)C(=O)N[C@@H](CO)C(=O)N[C@@H](CC(C)C)C(=O)N[C@@H](CC(=O)O)C(=O)N[C@@H](C(=O)N1CCC[C@H]1C(=O)N[C@H](C(=O)N[C@@H](CCCCN)C(=O)N[C@@H](CC(C)C)C(=O)N[C@@H](CCCCNC(=O)CC[C@H](NC(=O)CCCCCCCCCCCCCCC(=O)O)C(=O)O)C(=O)N[C@@H](CCCCN)C(=O)N[C@H](C(=O)N[C@@H](CC(C)C)C(=O)N[C@@H](CC(C)C)C(=O)N[C@@H](CCC(=O)O)C(=O)N[C@@H](CCC(N)=O)C(=O)N[C@@H](CCC(=O)O)C(=O)N[C@@H](CCCCN)C(=O)N[C@@H](CCC(N)=O)C(=O)N[C@@H](CCCCN)C(=O)N[C@@H](CCCCN)C(=O)N[C@@H](CCC(N)=O)C(=O)N[C@@H](CCCNC(=N)N)C(=O)N[C@@H](CCC(=O)O)C(=O)N[C@@H](CCC(N)=O)C(=O)N[C@@H](C)C(=O)N[C@@H](CCC(=O)O)C(=O)N[C@H](C(=O)N[C@@H](CC(N)=O)C(=O)NC(C)(C)C(=O)N[C@@H](CCC(N)=O)C(=O)N[C@H](C(=O)N[C@@H](CC(C)C)C(=O)N[C@@H](C)C(=O)N[C@@H](CCC(N)=O)C(=O)N[C@H](C(N)=O)C(C)C)[C@@H](C)CC)[C@@H](C)O)[C@@H](C)CC)[C@@H](C)CC)C(C)C)C(C)C
B5: SEQ ID NO 49 (peptide)
peptide: Ac-IVLSLDVPIK[αMeL]K([γGlu-C16 diacid])KILLEQEKQKKQREQAETNVQILAQV-NH2
B6: SEQ ID NO 40 (peptide)
peptide: Ac-IVLSLD[dV]PIKLK([γGlu-C16 diacid])KILLEQEKQKKQREQAETN[Aib]QILAQV-NH2
SMILES: CC[C@H](C)[C@H](NC(C)=O)C(=O)N[C@H](C(=O)N[C@@H](CC(C)C)C(=O)N[C@@H](CO)C(=O)N[C@@H](CC(C)C)C(=O)N[C@@H](CC(=O)O)C(=O)N[C@@H](C(=O)N1CCC[C@H]1C(=O)N[C@H](C(=O)N[C@@H](CCCCN)C(=O)N[C@@H](CC(C)C)C(=O)N[C@@H](CCCCNC(=O)CC[C@H](NC(=O)CCCCCCCCCCCCCCC(=O)O)C(=O)O)C(=O)N[C@@H](CCCCN)C(=O)N[C@H](C(=O)N[C@@H](CC(C)C)C(=O)N[C@@H](CC(C)C)C(=O)N[C@@H](CCC(=O)O)C(=O)N[C@@H](CCC(N)=O)C(=O)N[C@@H](CCC(=O)O)C(=O)N[C@@H](CCCCN)C(=O)N[C@@H](CCC(N)=O)C(=O)N[C@@H](CCCCN)C(=O)N[C@@H](CCCCN)C(=O)N[C@@H](CCC(N)=O)C(=O)N[C@@H](CCCNC(=N)N)C(=O)N[C@@H](CCC(=O)O)C(=O)N[C@@H](CCC(N)=O)C(=O)N[C@@H](C)C(=O)N[C@@H](CCC(=O)O)C(=O)N[C@H](C(=O)N[C@@H](CC(N)=O)C(=O)NC(C)(C)C(=O)N[C@@H](CCC(N)=O)C(=O)N[C@H](C(=O)N[C@@H](CC(C)C)C(=O)N[C@@H](C)C(=O)N[C@@H](CCC(N)=O)C(=O)N[C@H](C(N)=O)C(C)C)[C@@H](C)CC)[C@@H](C)O)[C@@H](C)CC)[C@@H](C)CC)C(C)C)C(C)C
B7: SEQ ID NO 43 (peptide)
peptide: Ac-IVLSLDVPIK[αMeL]K([γGlu-C16 diacid])KILLEQEKQKKQREQAETN[Aib]QILAQV-NH2
SMILES: CC[C@H](C)[C@H](NC(C)=O)C(=O)N[C@H](C(=O)N[C@@H](CC(C)C)C(=O)N[C@@H](CO)C(=O)N[C@@H](CC(C)C)C(=O)N[C@@H](CC(=O)O)C(=O)N[C@H](C(=O)N1CCC[C@H]1C(=O)N[C@H](C(=O)N[C@@H](CCCCN)C(=O)N[C@@](C)(CC(C)C)C(=O)N[C@@H](CCCCNC(=O)CC[C@H](NC(=O)CCCCCCCCCCCCCCC(=O)O)C(=O)O)C(=O)N[C@@H](CCCCN)C(=O)N[C@H](C(=O)N[C@@H](CC(C)C)C(=O)N[C@@H](CC(C)C)C(=O)N[C@@H](CCC(=O)O)C(=O)N[C@@H](CCC(N)=O)C(=O)N[C@@H](CCC(=O)O)C(=O)N[C@@H](CCCCN)C(=O)N[C@@H](CCC(N)=O)C(=O)N[C@@H](CCCCN)C(=O)N[C@@H](CCCCN)C(=O)N[C@@H](CCC(N)=O)C(=O)N[C@@H](CCCNC(=N)N)C(=O)N[C@@H](CCC(=O)O)C(=O)N[C@@H](CCC(N)=O)C(=O)N[C@@H](C)C(=O)N[C@@H](CCC(=O)O)C(=O)N[C@H](C(=O)N[C@@H](CC(N)=O)C(=O)NC(C)(C)C(=O)N[C@@H](CCC(N)=O)C(=O)N[C@H](C(=O)N[C@@H](CC(C)C)C(=O)N[C@@H](C)C(=O)N[C@@H](CCC(N)=O)C(=O)N[C@H](C(N)=O)C(C)C)[C@@H](C)CC)[C@@H](C)O)[C@@H](C)CC)[C@@H](C)CC)C(C)C)C(C)C

Experiments:
[1] = target: T1, CRF1R receptor; assay: cell-based or functional assay
[2] = target: human corticotropin-releasing factor 2a (CRF2a receptor) (human), Q13324; assay: cell-based or functional assay
Chain of human corticotropin-releasing factor 2a (CRF2a receptor) (human), Q13324 (Q13324 20-411): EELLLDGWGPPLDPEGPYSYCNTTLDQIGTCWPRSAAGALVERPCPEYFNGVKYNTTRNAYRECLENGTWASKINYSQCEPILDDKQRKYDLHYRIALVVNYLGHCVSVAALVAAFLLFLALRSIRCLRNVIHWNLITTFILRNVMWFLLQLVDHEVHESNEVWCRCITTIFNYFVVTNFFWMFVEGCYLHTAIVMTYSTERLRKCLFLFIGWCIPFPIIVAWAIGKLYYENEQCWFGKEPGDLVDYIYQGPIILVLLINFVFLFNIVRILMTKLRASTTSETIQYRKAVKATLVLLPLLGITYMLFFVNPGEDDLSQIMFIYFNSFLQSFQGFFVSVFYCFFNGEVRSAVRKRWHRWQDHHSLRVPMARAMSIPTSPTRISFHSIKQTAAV

Binder	Emax (% I) [1] [%]	EC50 [nM] (cAMP) [2]	EC50 [1] [nM]
B1	7	0.6	–
B2	27	0.1	100
B3	-5	17.6	–
B4	4	0.19	–
B5	-3	0.92	–
B6	0	0.25	–
B7	1	0.3	–
